Assay results as given in paper doi:10.1101/2022.07.20.500788.

Experiments:
Experiment in all cases: filter binding
HsAGO2 = HsAGO2 (human, UniProt Q9UKV8 1-859)
AtAGO10+Hs-loop D795A = molecular target: T1, AtAGO10+Hs-loop D795A (Arabidopsis, UniProt Q9XGW1 1-712+Q9UKV8:602-608+721-988, D795A;internal_change)
T1 sequence: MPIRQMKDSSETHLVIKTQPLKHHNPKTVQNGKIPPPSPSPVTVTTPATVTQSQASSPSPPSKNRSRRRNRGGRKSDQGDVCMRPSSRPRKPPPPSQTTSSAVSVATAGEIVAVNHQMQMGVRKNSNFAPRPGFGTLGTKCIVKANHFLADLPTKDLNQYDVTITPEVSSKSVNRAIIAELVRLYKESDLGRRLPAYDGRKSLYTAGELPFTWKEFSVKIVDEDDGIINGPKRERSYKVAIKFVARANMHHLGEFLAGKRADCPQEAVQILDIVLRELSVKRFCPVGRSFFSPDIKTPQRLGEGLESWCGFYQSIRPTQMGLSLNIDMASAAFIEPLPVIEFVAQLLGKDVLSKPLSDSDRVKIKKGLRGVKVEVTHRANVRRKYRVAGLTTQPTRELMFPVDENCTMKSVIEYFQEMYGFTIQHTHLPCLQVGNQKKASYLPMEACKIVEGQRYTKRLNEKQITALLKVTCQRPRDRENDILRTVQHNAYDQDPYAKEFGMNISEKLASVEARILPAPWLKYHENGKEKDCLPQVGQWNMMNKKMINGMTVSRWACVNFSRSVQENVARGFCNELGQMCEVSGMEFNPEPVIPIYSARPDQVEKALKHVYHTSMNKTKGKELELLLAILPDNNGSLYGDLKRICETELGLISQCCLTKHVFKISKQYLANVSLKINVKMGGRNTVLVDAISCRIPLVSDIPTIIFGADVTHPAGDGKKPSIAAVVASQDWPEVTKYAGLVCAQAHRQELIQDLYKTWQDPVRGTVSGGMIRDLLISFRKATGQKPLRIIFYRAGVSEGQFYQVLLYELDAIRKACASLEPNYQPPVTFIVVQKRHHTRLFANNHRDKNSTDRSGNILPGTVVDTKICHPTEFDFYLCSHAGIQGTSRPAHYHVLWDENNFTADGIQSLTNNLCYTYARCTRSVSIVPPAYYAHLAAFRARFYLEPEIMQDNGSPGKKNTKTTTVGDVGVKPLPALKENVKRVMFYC

[1] = molecular target: T2, AtAGO10 D795A (wild-type PIWI loop) (Arabidopsis, UniProt Q9XGW1 1-988, D795A)
T2 sequence: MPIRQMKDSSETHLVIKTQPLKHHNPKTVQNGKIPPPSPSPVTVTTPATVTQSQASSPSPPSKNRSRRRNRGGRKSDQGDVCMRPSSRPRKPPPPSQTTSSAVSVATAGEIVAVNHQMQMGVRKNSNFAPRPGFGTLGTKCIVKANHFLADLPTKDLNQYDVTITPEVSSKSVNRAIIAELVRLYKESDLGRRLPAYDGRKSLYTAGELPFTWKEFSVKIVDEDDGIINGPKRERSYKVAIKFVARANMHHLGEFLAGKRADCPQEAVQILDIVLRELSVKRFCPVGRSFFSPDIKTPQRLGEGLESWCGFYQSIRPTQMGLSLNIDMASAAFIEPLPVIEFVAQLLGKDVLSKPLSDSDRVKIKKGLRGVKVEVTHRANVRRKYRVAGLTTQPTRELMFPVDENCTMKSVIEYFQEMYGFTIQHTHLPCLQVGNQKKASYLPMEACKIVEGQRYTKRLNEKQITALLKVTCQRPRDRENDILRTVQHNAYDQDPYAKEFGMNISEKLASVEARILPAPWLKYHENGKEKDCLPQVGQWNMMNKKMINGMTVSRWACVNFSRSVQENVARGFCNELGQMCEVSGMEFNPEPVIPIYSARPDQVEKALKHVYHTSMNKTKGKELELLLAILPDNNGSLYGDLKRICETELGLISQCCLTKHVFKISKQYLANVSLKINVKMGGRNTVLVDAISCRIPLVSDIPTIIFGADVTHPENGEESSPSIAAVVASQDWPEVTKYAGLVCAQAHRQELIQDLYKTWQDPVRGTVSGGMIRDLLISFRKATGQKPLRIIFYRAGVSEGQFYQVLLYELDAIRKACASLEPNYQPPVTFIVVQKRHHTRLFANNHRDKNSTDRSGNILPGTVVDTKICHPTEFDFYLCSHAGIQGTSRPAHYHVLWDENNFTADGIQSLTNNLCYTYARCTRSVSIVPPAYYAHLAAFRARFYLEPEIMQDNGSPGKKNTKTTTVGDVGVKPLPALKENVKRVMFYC

HsAGO2+At-loop = HsAGO2+At-loop (human, UniProt Q9UKV8 1-601+Q9XGW1:713-720+609-859, internal_change)

B1: guide RNA / 2-21 target (mixed)
RNA 1: UGGAGUGUGACAAUGGUGUUU
RNA 2: AAACACCAUUGUCACACUCCAAA
Kd (HsAGO2): 0.01 ± 0.001 nM | Kd (AtAGO10+Hs-loop D795A): 0.095 ± 0.012 nM | Kd [1]: 0.04 ± 0.007 nM | Kd (HsAGO2+At-loop): 0.005 ± 0.001 nM

B2: guide RNA / 2-8 target (mixed)
RNA 1: UGGAGUGUGACAAUGGUGUUU
RNA 2: AAAAAAAAAAAAAACACUCCAAA
Kd (HsAGO2): 0.086 ± 0.005 nM | Kd (AtAGO10+Hs-loop D795A): 0.38 ± 0.03 nM | Kd [1]: 1.33 ± 0.14 nM | Kd (HsAGO2+At-loop): 6.43 ± 0.24 nM
